Experimental data: patent US20140289906A1, “Compositions Having Dicamba Decarboxylase Activity and Methods of Use” (priority 2013, published 2014)

Experiment: 14C assay: 14CO2 capture from [14C]-carboxyl-labeled dicamba with IPTG-induced recombinant E. coli cells
Settings: for Dicamba Decarboxylase Activity: IPTG-induced recombinant E. coli cells, 14CO2 from [14C]-carboxyl-labeled dicamba; for decarboxylation activity of dicamba: among the 108 sequences tested, recombinant E. coli cell assay; for Enzymatic Detection level: dicamba decarboxylation activity

Molecule	Dicamba Decarboxylase Activity	decarboxylation activity of dicamba	Enzymatic Detection level
52 (protein, listed as Streptomyces sp.) MAKIIALEEHFSDPAVAKAGAARAQALSPGFAASYSPASGLPYSPSPEVLENLAEKRLADMDAGGITMQVLSGLSAQTVPADVAPALVAGSNDKAAAAVRAHPDRFAAFAALPTAAPEAAVAELDRSVNELGFVGTLIMGRTEGEFLDAPRFEPILARAAALKVPVFLHPGVPPREITDSNYAAGLPTGIGTRLQTAAWGWHQETAVHFLHLVHSGVLDRYPDLQFILGHWGETIPFYLDRVDEALPQRATGLDRSFHEYFRENVYLAPSGMWSQAQLRFCLETFPLERIVFAVDYPFIGNEGAVPFLEKAELPEADKRKIAHENAERLLGL	High	showed decarboxylation activity of dicamba	High
54 (protein, listed as Streptomyces sp.) MAKIIALEEHFSDPAVAKAGAARAQALSPGFAASYSPASGLPYSPSPEVLENLAEKRLADMDAGGITMQVLSGLGAQTVPADVAPALVAGSNDKAAAAVRAHPDRFAAFAALPTAAPEAAVAELDRSINELGFVGTLIMGRTEGEFLDAPRFEPILARAAALKVPVFLHPGVPPREITDSNYAAGLPTGIGTRLQTAAWGWHQETAVHFLHLVHSGVLDRYPGLQFILGHWGEMIPFYLDRVDEALPQRATGLDRSFHEYFRENVYLAPSGMWSQAQLRFCLETVPLERIVFAVDYPFIGNEGAVPFLEKAELPEADKRKIAHENAERLLGL	High	showed decarboxylation activity of dicamba	High
51 (protein, listed as Mycobacterium gilvum) MARVIAIEEHYAHPGLQPAEALANLRKHPQLARIQDKLEDLGAGRLADMDAAGIDMQVLSHTVPGAEALPAAQAVDVVRQTNDDLAEVIAAHPDRFAGFAALPMRDPQAAATELQRAVGTLGFCGAMINGLIEGRFLDHPDFTPLLSTAADLGVPLYLHPSFPPPQVAQIYFGGLPPVLADLLATAGWGWHAETALHVLRLISTGVFDRLPELRVIVGHMGEMIPFALARIDTVLSPMTELRQPVAQYFQTNVWFTTSGYTTFPPLQCALSTVGIDRLIFSVDYPYTDNASARALLDTAPISPVDREKLAHATVEALLRV	High	showed decarboxylation activity of dicamba	High
53 (protein, listed as Granulicella tundricola) MARTITLEEHFVTDSFLRATGAYDKPAPPWLAQLQPKLLDLGDGRIAAMDEAGIDLQVLSLAALGFDALDAATATPLVHDINDELAAAVRANPTRLAAFASLALKDPQSAARELERAIQKLGFRGVLLDGTTDGLFLDDPRFTPVFEAAVALNVPIYLHPAPPPESVFDTYFTGLPEGVGQMLSIAGWGWHAETALHTLRLITNGVFDRYPTLQLIIGHMGEMLPMALARTSKALSHAARLRQPVAAYFQSNIHLTTSGYFTQPPLRCALDVVGIDRLMFSIDYPFSANTLGRDYLTELEQTLTPEDLAKLIHRNAESLLNLS	High	showed decarboxylation activity of dicamba	High
50 (protein, listed as Streptomyces sp.) MARIVTLEEHWTDPAVTAAGMPNLLDHVPGYAAAFDPDTGMPYPRHPELLEDLGAARIADMDRHGITTQVLSLVNTFLPADVAPRLTAAANDAMAAAVEAFPGRFAAFATLPTAVPGAAADELRRCVGELGFVGTMIMGRTDGEFLDQPRFDPILRAASDLSVPVYLHPAPPPVAVSEASYAGGLSPAVSAAFRLAAWGWHQETAVHLLHLVLAGVLDRYPGLQFVLGHWGEFIPFYLDRLDESMPRRMTGLDRTFREYFRDNVFITPSGMFSQAQLRYCADTVGTDRIIHSVDFPMLGNEGAVSFLTDSHLSREDQEKIAHGNADALLGLG	High	showed decarboxylation activity of dicamba	High
